Test results published in paper PMC9345960, “ERK1/2 inhibits Cullin 3/SPOP-mediated PrLZ ubiquitination and degradation to modulate prostate cancer progression” (Cell Death and Differentiation, 2022).

Target: T1, HA-SPOP, wild type (UniProt O43791 1-374)
T1 construct: SPOP (Speckle-type POZ protein); also called HA-SPOP WT; pcDNA3-HA-SPOP; source: 293T, transfected, in lysate; also purified from transfected 293T cells using HA-tag beads
Experiment: pull-down; GST pull-down: purified GST-PrLZ and HA-SPOP or His-SPOP incubated 3 h at 4 °C, washed with RIPA buffer, western blot (Fig. 2c: antibody against His)
Conditions: both partners purified

T1 sequence (O43791 whole entry): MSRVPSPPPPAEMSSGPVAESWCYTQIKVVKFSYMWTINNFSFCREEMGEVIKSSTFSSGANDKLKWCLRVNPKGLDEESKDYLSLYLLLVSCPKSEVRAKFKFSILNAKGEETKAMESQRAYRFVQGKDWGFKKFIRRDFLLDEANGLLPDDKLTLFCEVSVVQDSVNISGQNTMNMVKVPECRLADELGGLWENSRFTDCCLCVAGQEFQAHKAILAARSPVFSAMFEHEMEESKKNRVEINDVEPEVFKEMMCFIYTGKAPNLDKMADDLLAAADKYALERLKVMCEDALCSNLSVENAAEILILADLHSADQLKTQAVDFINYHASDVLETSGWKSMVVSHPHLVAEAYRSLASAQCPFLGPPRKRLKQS

B1: GST-PrLZ, wild type (bacterial) (natural protein, UniProt P55327 1-224, looked up)
chain: MDCREMDLYEDYQSPFDFDAGVNKSYLYLSPSGNSSPPGSPTLQKFGLLRTDPVPEEGEDVAATISATETLSEEEQEELRRELAKVEEEIQTLSQVLAAKEKHLAEIKRKLGINSLQELKQNIAKGWQDVTATSAYKKTSETLSQAGQKASAAFSSVGSVITKKLEDVKNSPTFKSFEEKVENLKSKVGGTKPAGGDFGEVLNSAANASATTTEPLPEKTQESL
notes: Prostate Leucine Zipper (PrLZ); also called GST-PrLZ WT; pGEX-4T-1-GST-PrLZ; source: E. coli BL21, purified (Glutathione Sepharose 4B)
Question: Does B1 bind?
Answer: binds
